Data: patent US7598032B2, “Thermostable DNA polymerases incorporating nucleoside triphosphates labeled with fluorescent dyes” (Roche Molecular Systems, priority 1997, dated 2009)

Key:
[1] = tested on: primer annealed to an M13 template; assay: Extension rate assay; format: biochemical; details: for extension rate, Base Pairs/Sec: 75° C
Protocol: The extension rate of G46D F667Y Taq and G46D F667Y E681K Taq were determined using an extension rate assay. In this experiment, the enzymes were used to extend a primer annealed to an M13 template in the presence of [α-^33P]dCTP. The extension reactions were denatured and the products analyzed by denaturing agarose gel electrophoresis.
The assay was performed as previously described (Lawyer et al., 1989, J. Biol. Chem. 264:6427) including the following modifications. The assay mixture was composed so the final concentration was 50 mM Bicine pH 8.3, 25° C., 2.5 mM MgCl2, 1 mM β-mercaptoethanol, 200 μM each of dATP, dGTP and dTTP (Perkin-Elmer), 100 μM dCTP (Perkin-Elmer) containing [α-^33P]dCTP (New England Nuclear, Boston, Mass.). M13 mp18 (Perkin-Elmer) was annealed to primer DG48, (SEQ ID NO: 11), and the equivalent of 0.085 pmoles of the annealed template was added to the assay mixture for each reaction. Forty-five μl of the assay mixture with template DNA was added to each of fourteen 0.5 ml eppendorf tubes. Each tube was preincubated at 75° C. for at least 30 seconds before the start of the polymerase reaction.
Polymerization was initiated in six of the fourteen assay tubes with 5 μl of G46D F667Y Taq DNA polymerase (2.5 units) or G46D F667Y E681K Taq DNA polymerase (1.25 units). Both enzymes were prepared as in Example I and the concentration used represents a predetermined excess amount of enzyme for the amount of substrate in the assay. As a control for the level of background, the remaining negative control was initiated with enzyme dilution buffer rather than polymerase. All reaction tubes were immediately vortexed briefly and incubated at 75° C. Two of the six tubes containing G46D F667Y Taq DNA polymerase were incubated 3 minutes, two for 6 minutes and two for 10 minutes. Similarly, two of the tubes started with G46D F667Y E681K Taq DNA polymerase were incubated for 30 seconds, two for 1 minute and two for 2 minutes. The control tubes were incubated for 3 minutes. The reactions were stopped by addition of 10 μl 60 mM EDTA and stored at 0° C.
For each reaction, a 25 μl aliquot of the 60 μl reaction was diluted with 1 ml 2 mM EDTA, 50 μg/ml sheared salmon sperm DNA as a carrier. The DNA was precipitated with TCA using standard procedures and collected on GF/C filter discs (Whatman). The amount of incorporated [α-^33P]dCMP was determined for each sample.
The remaining 35 μl of each duplicated were combined and the 70 μl sample was ethanol precipitated, dried and resuspended in 50 mM NaOH, 1 mM EDTA. Aliquots were removed from these samples such that an equal number of α-^33P] counts were taken from each. These aliquots were loaded on an 0.9% alkaline agarose gel, electrophoresed, dried and autoradiographed as previously described (Maniatis et al., 1982, In Molecular Cloning: A Laboratory Manual, Cold Spring Harbor Laboratory, Cold Spring Harbor, N.Y.) Bacteriophage lambda DNA cut with restriction enzyme HindIII (BRL) and 5′ end-labeled with [^32P] was used as a molecular weight standard.
The length in base pairs of the extension product in each sample was determined by comparison of the migration distance of each sample with the distance migrated by the lambda DNA size standard. The number of base pairs in each product was divided by the number of seconds each extension reaction incubated to give the extension rate as shown below.

[2] = tested on: M13 mp18 single-strand DNA template; assay: Cycle sequencing with fluorescein labeled ddNTPs (dye-terminator sequencing); format: biochemical
Protocol: The fluorescein dye labeled dideoxy terminators are reagents from the Applied Biosystems PRISM Sequenase® Terminator Sequencing Kits (Perkin-Elmer, Norwalk, Conn.) and were optimized for use with Sequenase DNA polymerase and alpha-thio dNTPs. Cycle sequencing reactions were performed in a 20 μl volume containing 50 mM Tris-HCl (pH 8.8), 2.0 mM MgCl2, 100 μM each dATP, dCTP, and dTTP (Perkin-Elmer, Norwalk, Conn.), 500 μM dITP (Pharmacia Biotech, Piscataway, N.J.), 0.2 μM13 mp18 single-strand DNA template (Perkin-Elmer), 0.15 μM LacZ Forward Primer (Perkin-Elmer), 5 units of G46D F667Y E681K Taq DNA polymerase, 20 units of rTth Thermostable Pyrophosphatase (U.S. Ser. No. 08/528,384), 0.05 μM Sequenase A Dye Terminator, 0.80 μM Sequenase C Dye Terminator, 0.08 μM Sequenase G Dye Terminator, and 1.0 μM Sequenase T Dye Terminator. All four Sequenase Dye Terminators were purchased from Perkin-Elmer. Reactions were placed in a preheated (75° C.) Perkin-Elmer GeneAmp® PCR System 9600 thermal cycler and subjected to 25 cycles of 96° C. for 10 seconds, 50° C. for 5 seconds, and 60° C. for 4 minutes. Dye labeled fragments were purified with Centri-Sep™ columns (Princeton Separations, Adelphia, N.J.) following the manufacturer's instructions and dried in a vacuum centrifuge. Pellets were resuspended in 6 μl of deionized formamide:50 mg/mL Blue dextran (in 25 mM EDTA, pH 8.0) 5:1 (v/v), heated at 90° C. for 3 minutes, and directly loaded onto a pre-electrophoresed 4% polyacrylamide/6 M urea gel and electrophoresed and analyzed on a Perkin-Elmer ABI PRISM' 377 DNA Sequencer according to the manufacturer instructions (ABI PRISM 377 DNA Sequencer User's Manual).

B1: G46D F667Y E681K Taq: thermostable Taq DNA polymerase with G46D, F667Y and E681K mutations, encoded by plasmid pLK113 (protein, UniProt P19821 1-832, looked up, variant G46D F667Y E681K)
DNA polymerase I, thermostable: MRGMLPLFEPKGRVLLVDGHHLAYRTFHALKGLTTSRGEPVQAVYDFAKSLLKALKEDGDAVIVVFDAKAPSFRHEAYGGYKAGRAPTPEDFPRQLALIKELVDLLGLARLEVPGYEADDVLASLAKKAEKEGYEVRILTADKDLYQLLSDRIHVLHPEGYLITPAWLWEKYGLRPDQWADYRALTGDESDNLPGVKGIGEKTARKLLEEWGSLEALLKNLDRLKPAIREKILAHMDDLKLSWDLAKVRTDLPLEVDFAKRREPDRERLRAFLERLEFGSLLHEFGLLESPKALEEAPWPPPEGAFVGFVLSRKEPMWADLLALAAARGGRVHRAPEPYKALRDLKEARGLLAKDLSVLALREGLGLPPGDDPMLLAYLLDPSNTTPEGVARRYGGEWTEEAGERAALSERLFANLWGRLEGEERLLWLYREVERPLSAVLAHMEATGVRLDVAYLRALSLEVAEEIARLEAEVFRLAGHPFNLNSRDQLERVLFDELGLPAIGKTEKTGKRSTSAAVLEALREAHPIVEKILQYRELTKLKSTYIDPLPDLIHPRTGRLHTRFNQTATATGRLSSSDPNLQNIPVRTPLGQRIRRAFIAEEGWLLVALDYSQIELRVLAHLSGDENLIRVFQEGRDIHTETASWMFGVPREAVDPLMRRAAKTINYGVLYGMSAHRLSQKLAIPYEEAQAFIERYFQSFPKVRAWIEKTLEEGRRRGYVETLFGRRRYVPDLEARVKSVREAAERMAFNMPVQGTAADLMKLAMVKLFPRLEEMGARMLLQVHDELVLEAPKERAEAVARLAKEVMEGVYPLAVPLEVEVGIGEDWLSAKE
extension rate, Base Pairs/Sec ([1]; Time 30 sec.): 36.7 Base Pairs/Sec
extension rate, Base Pairs/Sec ([1]; Time 1 min.): 41.7 Base Pairs/Sec
extension rate, Base Pairs/Sec ([1]; Time 2 min): 52.9 Base Pairs/Sec
extension rate (in words) ([1]; relative to an enzyme with the F667Y mutation alone): significantly increased extension rate
accuracy of automated base-calling ([2]; for 450 bases, ABI PRISM 377 DNA Sequencer, 1 μM or less ddNTP): greater than 98.5%
base-calling errors ([2]; for bases +10 to +460 from primer): 6 errors
sequencing ladder with fluorescein dye family-labeled ddNTPs ([2]; sequencing reaction with fluorescein dye family-labeled ddNTPs): readable sequencing ladder
